From article PMC7554688, “Blocking of the IL-33/ST2 Signaling Axis by a Single-Chain Antibody Variable Fragment (scFv) Specific to IL-33 with a Defined Epitope” (International Journal of Molecular Sciences, 2020)

T1: ST2-Fc fusion protein (ectodomain of ST2, residues 19-321, and Fc from human IgG) (UniProt Q01638 19-321)
T1 construct: Suppressor of tumorigenicity 2 (ST2) / interleukin 1 receptor-like 1 (IL1RL1), ectodomain, residues 19-321; Synthesised gene in the pSF vector; also called sST2; IL1RL1; source: Expi293F, transfected, purified from supernatant (protein A agarose)
T1 sequence (looked up): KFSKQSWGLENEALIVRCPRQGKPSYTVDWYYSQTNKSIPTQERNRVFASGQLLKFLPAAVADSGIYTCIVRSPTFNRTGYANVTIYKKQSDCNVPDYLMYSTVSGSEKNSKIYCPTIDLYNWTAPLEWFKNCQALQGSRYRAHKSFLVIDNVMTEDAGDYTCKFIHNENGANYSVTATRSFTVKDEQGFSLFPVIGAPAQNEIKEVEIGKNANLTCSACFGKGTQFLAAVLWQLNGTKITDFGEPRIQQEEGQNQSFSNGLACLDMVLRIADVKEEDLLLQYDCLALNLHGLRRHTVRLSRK

B1: GST-IL-33 (mature form of interleukin 33, residues 112-270) (domain or fragment, human, UniProt O95760 112-270, looked up)
chain: SITGISPITEYLASLSTYNDQSITFALEDESYEIYVEDLKKDEKKDKVLLSYYESQHPSNESGDGVDGKMLMVTLSPTKDFWLHANNKEHSVELHKCEKPLPDQAFFVLHNMHSNCVSFECKTDPGVFIGVKDNHLALIKVDSSENLCTENILFKLSET
notes: Interleukin-33, human, mature form / IL-1-like cytokine domain, residues 112-270; Synthesised gene in the parallel GST-2 vector; also called GST-IL-33 WT; GST-IL-33_(112)-270; source: E. coli BL21 (DE3), purified (Glutathione Sepharose 4B); not shown: GST, N-terminal, kept
B2: C2_2E1 (scFv, V domains shown)
VH: EVQLLESGGGLVQPGGSLRLSCAASGFTFSSYYMSWVRQAPGRGLEWVSAISPGSSNKYYADSVKGRFTISRDNSKNTLYLQMNSLRAEDTAVYYCARMTSSFDYWGQGTLVTVSS
VL: QSVLTQPPSASGTPGQRVTISCSGSSSNIGNNDVSWYQQLPGTAPKLLIYSDSQRPSGVPDRFSGSKSGTSASLAISGLRSEDEADYYCGSWDYSLSAYVFGGGTKLTVL
notes: selected from a synthetic human scFv library by phage display; also called anti-IL-33 scFv clone C2_2E1; source: E. coli BL21 (DE3), in cell lysate; purified (Ni-NTA, SEC)
B3: C2_2A10 (scFv, V domains shown)
VH: EVQLLESGGGLVQPGGSLRLSCAASGFTFSSYYMSWVRQAPGKGLEWVSAISPGSSNKYYADSVKGRFTISRDNSKNTLYLQMNSLGAEDTAVYYCAKLLTGFDYWGQGTLVTVSS
VL: QSVLTQPPSASGTPGQRVTISCSGSSSNIGNNAVSWYQQLPGTAPKLLIYDDNHRPSGVPDRFSGSKSGTSASLAISGLRSEDEADYYCGTWDSSLSAYVFGGGTKLTVL
notes: selected from a synthetic human scFv library by phage display; also called anti-IL-33 scFv clone C2_2A10; source: E. coli BL21 (DE3), in cell lysate; purified (Ni-NTA, SEC)
B4: C1_1E1 (scFv, V domains shown)
VH: EVQLLESGGGLVQPGGSLRLSCAASGFTFSSYYMSWVRQAPGKGLEWVSAISPGSSNKYYADSVKGRFTISRDNSKNTLYLQMNSLRAEDTAVYYCAKLTSAFDYWGQGTLVTVSS
VL: QSVLTQPPSASGTPGQRVTISCTGSSSNIGSNDVTWYQQLPGTAPKLLIYSDNKRPSGVPDRFSGSKSGTSASLAISGLRSEEEADYYCGAWDSSLSGYVFGGGTKLTVL
notes: selected from a synthetic human scFv library by phage display; also called anti-IL-33 scFv clone C1_1E1; source: E. coli BL21 (DE3), in cell lysate; purified (Ni-NTA, SEC)
B5: C2_2E12 (scFv, V domains shown)
VH: EVQLLESGGGLVQPGGSLRLSCAASGFTFSSYYMSWVRQAPGKGLEWVSAISPGSSNKYYADSVKGRFTISRDNSKNTLYLQMNSLRAEDTAVYYCARLTLSFDYWGQGTPVTVSS
VL: QSVLTQPPSASGTPGQRVTISCSGSSSNIGSNDVSWYQQLPGTAPKLLIYADSKRPSGVPDRFSGSKSGTSASLAISGLRSEDEADYYCASWDSSLSAYVFGGGTKLTVL
notes: selected from a synthetic human scFv library by phage display; Fab and IgG formats were made but no result is told for them; also called anti-IL-33 scFv clone C2_2E12; C2_2E12 antibody; source: E. coli BL21 (DE3), in cell lysate and purified (Ni-NTA, SEC); scFv also expressed in Expi293F, purified (Ni-NTA, SEC)
B6: C2_1D5 (scFv, V domains shown)
VH: EVQLLESGGGLVQPGGSLRLSCAASGFTFSSYYMSWVRQAPGKGLEWVSAISPGSSNKYYADSVKGRFTISRDNSKNTLYLQMNSLRAEDTAVYYCARLLSAFDYWGQGTLVTVSS
VL: QSVLTQPPSASGTPGQRVTISCSGSSSNIGSNDVSWYQQLPGTAPKLLIYSDSNRPSGVPDRFSGSKSGTSASLAISGLRSEDEADYYCGAWDSSLSGYVFGGGTKLTVL
notes: selected from a synthetic human scFv library by phage display; also called anti-IL-33 scFv clone C2_1D5; source: E. coli BL21 (DE3), in cell lysate; purified (Ni-NTA, SEC)
B7: C2_2H5 (scFv, V domains shown)
VH: EVQLLESGGGLVQPGGSLRLSCAASGFTFSSYYMSWVRQAPGKGLEWVSAISPGSSNKYYADSVKGQFTISRDNSKNTLYLQMNSLRAEDTAVYYCAKLSQSFDYWGQGTLVTVSS
VL: QSVLTQPPSASGTPGQRVTISCTGSSSNIGNNGISWYQQLPGTAPKLLIYDNSHRPSGVPDRFSGSKSGTSASLAISGLRSEDETDYYCASWDSSLSGYVFGGGTKLTVL
notes: selected from a synthetic human scFv library by phage display; also called anti-IL-33 scFv clone C2_2H5; source: E. coli BL21 (DE3), in cell lysate; purified (Ni-NTA, SEC)

Assays:
[1] = target: T1, ST2-Fc fusion protein (ectodomain of …); assay: pull-down; 4 uM GST-IL-33 on Glutathione Sepharose 4B, then 4 uM ST2-Fc, then C2_2E12 (0.4, 4, 40, 400 uM), 30 min at 4 C each step; 50 mM Tris-HCl pH 7.5, 150 mM NaCl; immunoblot (anti-ST2, anti-GST, anti-His6), bands quantified with ImageJ; details: both partners purified
[2] = target: T2, GST-IL-33 (mature form of interleukin 33, residues 112-270) (human, UniProt O95760); assay: ELISA; E. coli cell lysates containing overexpressed His6-tagged scFvs against GST-IL-33; the text says ELISA, the legend 'kinetic analysis'; the methods tell of lysates only for BLI (BLItz; lysate scFv on Ni-NTA biosensors, GST-IL-33 at 2, 1, 0.5 and 0.25 uM, Kd = koff/kon); details: one partner purified
T2 construct: Interleukin-33, human, mature form / IL-1-like cytokine domain, residues 112-270; Synthesised gene in the parallel GST-2 vector; also called GST-IL-33 WT; GST-IL-33_(112)-270; source: E. coli BL21 (DE3), purified (Glutathione Sepharose 4B); not shown: GST, N-terminal, kept

[3] = target: T2, GST-IL-33 (mature form of interleukin …); assay: ELISA; GST-IL-33 coated on the plate; serial dilutions of purified scFv (about 8 ng/mL to 0.8 mg/mL), ambient temperature 1 h, PBST; anti-HA-HRP detection, OD450; repeated three times; details: both partners purified
[4] = target: T2, GST-IL-33 (mature form of interleukin …); assay: pull-down; 4 uM GST-IL-33 on Glutathione Sepharose 4B, then 4 uM ST2-Fc, then C2_2E12 (0.4, 4, 40, 400 uM), 30 min at 4 C each step; 50 mM Tris-HCl pH 7.5, 150 mM NaCl; immunoblot (anti-ST2, anti-GST, anti-His6), bands quantified with ImageJ; details: both partners purified

Binder	Kd [2]	other results
B1	–	binding result [1]: binds
B2	35 nM	–
B3	57 nM	–
B4	48 nM	–
B5	28 nM	Kd [3]: 38 nM; IL-33:ST2 interaction left at 100-fold molar excess of C2_2E12 (ST2-Fc band relative to that with 0.4 uM C2_2E12) [4]: ~40%
B6	36 nM	–
B7	31 nM	–
